According to US11957716B2 (Immatics Biotechnologies GmbH, priority 2021, dated 2024):

Columns and labels:
HLA-A*02:01 = HLA-A*02:01 (Homo sapiens, UniProt P04439, D140Y/D185E/D98H/E176V/E277Q/G131W/G231S/I119V/I121R/I166T/I218V/L300P/L318F/N151K/N90K/P208A/P217A/Q86G/Q94H/R138H/R169H/T345S); assay: MHC binding assay, UV-ligand exchange ELISA; details: peptide exchange yield, binding to HLA-A*02:01
[1] = tested on: HLA-A*01:01, HLA-A*02:01, HLA-A*03:01, HLA-A*24:02, HLA-B*07:02, HLA-B*08:01 and HLA-B*44:02; assay: HLA alleles the peptides bind to (Table 7); format: binding, human; details: allotype from the group HLA-A*01:01, HLA-A*02:01, HLA-A*03:01, HLA-A*24:02, HLA-B*07:02, HLA-B*08:01, HLA-B*44:02
Source text: However, due to similarities in binding pattern such as the relevant anchoring positions some peptides bind to more than one allele, such an overlap is most likely, but not limited to, HLA-A*01 binding peptides also binding to HLA-B*15, HLA-A*03 binding peptides also binding to HLA-A*11, HLA-B*07 binding peptides also binding to HLA-B*35 and HLA-B*51.

HLA-B*44:05 = HLA-B*44:05 (Homo sapiens, UniProt P01889, A223V/A65T/A93T/A95T/D201E/D98Y/E176V/E187L/E204Q/E69K/G107R/H137Y/K202T/L105A/L119I/N104T/N87E/Q56L/Q94N/R106L/R155S/R180D/S101N/S121R/S35A/S48T/T118I/V36M/W191S/Y91S); assay: MHC binding assay, UV-ligand exchange ELISA; details: peptide exchange yield, binding to HLA-B*44:05
HLA-A*01:01 = HLA-A*01:01 (Homo sapiens, UniProt P04439, A114D/A174V/A182V/D101N/D185E/E176A/E190D/L180R/Q94H/R68K/S129P/T187R/V100A/V91M/W191G); assay: MHC binding assay, UV-ligand exchange ELISA; details: peptide exchange yield, binding to HLA-A*01:01
HLA-A*24:02 = HLA-A*24:02 (Homo sapiens, UniProt P04439, D101N/D140Y/D185E/E176V/E190D/F33S/G103R/G107R/I119L/I121M/I306V/K335N/L105A/L180Q/L300P/N151K/N90K/Q86E/Q94H/R106L/R138H/R89G/T104I/T345S/V100E/W191G/Y123F); assay: MHC binding assay, UV-ligand exchange ELISA; details: peptide exchange yield, binding to HLA-A*24:02

Substance | Peptide exchange (HLA-A*02:01) | Binders (HLA alleles the peptides according to the invention bind to) [1] | Peptide exchange (HLA-B*44:05) | also measured
4 (IQAPALLKV; listed as Homo sapiens) [compound 4] | ++++ (≥75% = ++++) | HLA-A*02:01 |  | 
5 (METADRPEW; listed as Homo sapiens) [compound 5] |  |  | ++++ (75% = ++++) | 
9 (LLGVVSHSV; listed as Homo sapiens) [compound 9] | ++++ (≥75% = ++++) | HLA-A*02:01 |  | 
10 (ILMILQPQL; listed as Homo sapiens) [compound 10] | ++++ (≥75% = ++++) | HLA-A*02:01 |  | 
11 (TEIGTVIKLF; listed as Homo sapiens) [compound 11] |  |  | ++++ (75% = ++++) | 
12 (RLQEGLAAL; listed as Homo sapiens) [compound 12] | ++++ (≥75% = ++++) | HLA-A*02:01 |  | 
18 (SLSKLVATV; listed as Homo sapiens) [compound 18] | ++++ (≥75% = ++++) | HLA-A*02:01 |  | 
23 (AETKQFWSA; listed as Homo sapiens) [compound 23] |  |  | ++++ (75% = ++++) | 
26 (ETNTIEFIY; listed as Homo sapiens) [compound 26] |  | HLA-A*01:01 |  | Peptide exchange (HLA-A*01:01): ++++ (≥75% = ++++)
27 (SQAKQITIW; listed as Homo sapiens) [compound 27] |  |  | ++++ (75% = ++++) | 
30 (SLKSSILFL; listed as Homo sapiens) [compound 30] | +++ (≥50% = +++) | HLA-A*02:01 |  | 
36 (KEIEAQEAA; listed as Homo sapiens) [compound 36] |  |  | ++++ (75% = ++++) | 
39 (RELGVGIAL; listed as Homo sapiens) [compound 39] |  |  | ++++ (75% = ++++) | 
42 (LLSRGILIL; listed as Homo sapiens) [compound 42] | ++++ (≥75% = ++++) | HLA-A*02:01 |  | 
45 (SLFPISLTV; listed as Homo sapiens) [compound 45] | ++++ (≥75% = ++++) | HLA-A*02:01 |  | 
48 (TEMSVSALY; listed as Homo sapiens) [compound 48] |  |  | ++++ (75% = ++++) | 
54 (ASSPVILLL; listed as Homo sapiens) [compound 54] |  | HLA-A*01:01 |  | Peptide exchange (HLA-A*01:01): ++ (≥20% = ++)
56 (DVDIHKDLY; listed as Homo sapiens) [compound 56] |  | HLA-A*01:01 |  | Peptide exchange (HLA-A*01:01): ++++ (≥75% = ++++)
57 (IIIDRILLL; listed as Homo sapiens) [compound 57] | ++++ (≥75% = ++++) | HLA-A*02:01 |  | 
58 (REQLDGATL; listed as Homo sapiens) [compound 58] |  |  | ++++ (75% = ++++) | 
60 (VSPDEVLALW; listed as Homo sapiens) [compound 60] |  | HLA-A*01:01 |  | Peptide exchange (HLA-A*01:01): ++ (≥20% = ++)
65 (NSDLFYLLL; listed as Homo sapiens) [compound 65] |  | HLA-A*01:01 |  | Peptide exchange (HLA-A*01:01): ++++ (≥75% = ++++)
68 (TVDKGELLY; listed as Homo sapiens) [compound 68] |  | HLA-A*01:01 |  | Peptide exchange (HLA-A*01:01): ++++ (≥75% = ++++)
74 (TLNVLITL; listed as Homo sapiens) [compound 74] | ++ (≥20% = ++) | HLA-A*02:01 |  | 
82 (VLQSLQHEL; listed as Homo sapiens) [compound 82] | ++++ (≥75% = ++++) | HLA-A*02:01 |  | 
84 (KEFAFLEHSL; listed as Homo sapiens) [compound 84] |  |  | ++++ (75% = ++++) | 

Substance | Peptide exchange (HLA-A*02:01) | Binders (HLA alleles the peptides according to the invention bind to) [1] | Peptide exchange (HLA-B*44:05) | also measured
97 (ALIVLHLSL; listed as Homo sapiens) [compound 97] | ++ (≥20% = ++) | HLA-A*02:01 |  | 
102 (FLLLEKGGEL; listed as Homo sapiens) [compound 102] | ++++ (≥75% = ++++) | HLA-A*02:01 |  | 
105 (LVFESVVAA; listed as Homo sapiens) [compound 105] | ++++ (≥75% = ++++) | HLA-A*02:01 |  | 
106 (GLLDAFLRL; listed as Homo sapiens) [compound 106] | ++++ (≥75% = ++++) | HLA-A*02:01 |  | 
108 (SLQESLPNA; listed as Homo sapiens) [compound 108] | +++ (≥50% = +++) | HLA-A*02:01 |  | 
113 (ALGPMAFRV; listed as Homo sapiens) [compound 113] | ++++ (≥75% = ++++) | HLA-A*02:01 |  | 
117 (GEAAAARPV; listed as Homo sapiens) [compound 117] |  |  | +++ (50% = +++) | 
118 (RLLRLIPIL; listed as Homo sapiens) [compound 118] | ++++ (≥75% = ++++) | HLA-A*02:01 |  | 
121 (ILVTAWKGV; listed as Homo sapiens) [compound 121] | +++ (≥50% = +++) | HLA-A*02:01 |  | 
130 (ITPDSIPSV; listed as Homo sapiens) [compound 130] | +++ (≥50% = +++) | HLA-A*02:01 |  | 
139 (EEGRIITKW; listed as Homo sapiens) [compound 139] |  |  | ++++ (75% = ++++) | 
141 (REVAGASAL; listed as Homo sapiens) [compound 141] |  |  | +++ (50% = +++) | 
142 (YMLEMDNSMKI; listed as Homo sapiens) [compound 142] | ++++ (≥75% = ++++) | HLA-A*02:01 |  | 
145 (HLFSVLSAI; listed as Homo sapiens) [compound 145] | ++++ (≥75% = ++++) | HLA-A*02:01 |  | 
147 (VEAPHLPSF; listed as Homo sapiens) [compound 147] |  |  | ++++ (75% = ++++) | 
153 (ALNLSRLTV; listed as Homo sapiens) [compound 153] | ++++ (≥75% = ++++) | HLA-A*02:01 |  | 
167 (FALGPIIKQL; listed as Homo sapiens) [compound 167] | +++ (≥50% = +++) | HLA-A*02:01 |  | 
168 (AEGPDHHSL; listed as Homo sapiens) [compound 168] |  |  | ++++ (75% = ++++) | 
170 (LLDSWNILI; listed as Homo sapiens) [compound 170] | ++++ (≥75% = ++++) | HLA-A*02:01 |  | 
181 (FDLNIGSAY; listed as Homo sapiens) [compound 181] |  |  | ++++ (75% = ++++) | 
188 (KLPFFTNFL; listed as Homo sapiens) [compound 188] | ++++ (≥75% = ++++) | HLA-A*02:01 |  | 
200 (GLLGTLRVL; listed as Homo sapiens) [compound 200] | ++++ (≥75% = ++++) | HLA-A*02:01 |  | 
201 (VWILQKVNLAF; listed as Homo sapiens) [compound 201] |  | HLA-A*24:02 |  | Peptide exchange (HLA-A*24:02): +++ (50% = +++)
206 (VEGVHFVQLL; listed as Homo sapiens) [compound 206] |  |  | ++++ (75% = ++++) | 
212 (WETRLHNLW; listed as Homo sapiens) [compound 212] |  |  | ++++ (75% = ++++) | 
